We go through 26 molecules from patent US20250205324A1, “ANTIGENIC PEPTIDES FOR PREVENTION AND TREATMENT OF CANCER” (ENTEROME S.A., priority 2022, published 2025).

The target of the test is T1, HLA-A*0201 molecule expressed on human T2 cells (human).
T1 construct: surface HLA-A2 detected with anti-HLA-A2-PE (clone REA517); also called HLA-A2
As to the kind of experiment: T2 cell HLA-A*0201 binding assay, anti-HLA-A2-PE flow cytometry. The protocol:
T2 cells (5·10⁴ cells per well) are incubated with decreasing concentrations of peptides from 100 μM to 0.1 μM (4 points: 100 μM, 10 μM, 1 μM, 0.1 μM) in serum-free medium (TexMacs) supplemented with 100 ng/μl of 2 Microglobulin at 37° C. for 16 hours. Cells are then washed two times and marked with the anti-HLA-A2 antibody coupled to PE (clone REA517, Miltenyi).
For each peptide concentration, the geometric mean of the labelling associated with the peptide of interest is subtracted from background noise and reported as a percentage of the geometric mean of the HLA-A*0202 labelling obtained for the reference peptide HIV pol 589-597 at a concentration of 100 μM.

B1: UBE2C-B2 (peptide)
peptide: SLLSIQSYV
notes: also called ENT172_B1
In the case of B1, the “concentration of peptide that induces 20% of HLA-A2 expression” value worked out at 0.22 µM; the “in vitro binding affinity (relative affinity, normalized against HIV-pol)” value (from here on “relative affinity, normalized”) is 0.2 ratio to HIV pol reference peptide; the “mean relative fluorescence intensity at 0.1 µM peptide” value was 14.2 % of HIV pol reference peptide; the “mean relative fluorescence intensity at 1 µM peptide” value is 52 % of HIV pol reference peptide. In addition, the “mean relative fluorescence intensity at 10 µM peptide” value is 92 % of HIV pol reference peptide.

B2: OR51E2-B1 (peptide)
peptide: AVIGIVAAV
notes: also called ENT190_B1
Turning to B2, the “concentration of peptide that induces 20% of HLA-A2 expression” value came to 0.7 µM; the “relative affinity, normalized” value was 0.8 ratio to HIV pol reference peptide; the “mean relative fluorescence intensity at 0.1 µM peptide” value is 3.5 % of HIV pol reference peptide; the “mean relative fluorescence intensity at 1 µM peptide” value is 25.4 % of HIV pol reference peptide. The “mean relative fluorescence intensity at 10 µM peptide” value was 59.3 % of HIV pol reference peptide.

B3: UBE2C-H3 (peptide)
peptide: RLQQELMTL
For the molecule B3, the “concentration of peptide that induces 20% of HLA-A2 expression” value was 1.06 µM; the “relative affinity, normalized” value is 1.1 ratio to HIV pol reference peptide; the “mean relative fluorescence intensity at 0.1 µM peptide” value is 1.3 % of HIV pol reference peptide; the “mean relative fluorescence intensity at 1 µM peptide” value was 12.3 % of HIV pol reference peptide. Further, the “mean relative fluorescence intensity at 10 µM peptide” value was 71.5 % of HIV pol reference peptide and the “mean relative fluorescence intensity at 100 µM peptide” value was 82.4 % of HIV pol reference peptide.

B4: UBE2C-B3 (peptide)
peptide: YLQQELMNL
notes: also called ENT178_B1
For B4, the “concentration of peptide that induces 20% of HLA-A2 expression” value was 0.14 µM.

B5: TOP2A-B2 (peptide)
peptide: ALIFGQLLL
notes: also called ENT205_B1; ENT_205-B1
For the molecule B5, the “concentration of peptide that induces 20% of HLA-A2 expression” value turned out to be 1.79 µM; the “relative affinity, normalized” value was 2.9 ratio to HIV pol reference peptide; the “mean relative fluorescence intensity at 0.1 µM peptide” value was 3.4 % of HIV pol reference peptide; the “mean relative fluorescence intensity at 1 µM peptide” value is 5.5 % of HIV pol reference peptide. The “mean relative fluorescence intensity at 10 µM peptide” value is 73.6 % of HIV pol reference peptide and the “mean relative fluorescence intensity at 100 µM peptide” value is 146 % of HIV pol reference peptide.

B6: TOP2A-H2 (peptide)
peptide: ALIFGQLLT
notes: also called ENT205-H
Regarding B6, the “mean relative fluorescence intensity at 0.1 µM peptide” value is 5.1 % of HIV pol reference peptide, the “mean relative fluorescence intensity at 1 µM peptide” value was 0.3 % of HIV pol reference peptide, the “mean relative fluorescence intensity at 10 µM peptide” value was 3.2 % of HIV pol reference peptide and the “mean relative fluorescence intensity at 100 µM peptide” value is 0 % of HIV pol reference peptide.

B7: MMP11-H1 (peptide)
peptide: KVWSDVTPL
For the molecule B7, the “concentration of peptide that induces 20% of HLA-A2 expression” value was found to be 0.65 µM; the “relative affinity, normalized” value is 0.6 ratio to HIV pol reference peptide; the “mean relative fluorescence intensity at 1 µM peptide” value was 24.9 % of HIV pol reference peptide; the “mean relative fluorescence intensity at 10 µM peptide” value was 72.7 % of HIV pol reference peptide. Further, the “mean relative fluorescence intensity at 100 µM peptide” value is 82.5 % of HIV pol reference peptide.

B8: CDC20-B1 (peptide)
peptide: SLPDRILTV
notes: also called ENT204_B1; ENT_204-B1
In the case of B8, the “relative affinity, normalized” value was 0.6 ratio to HIV pol reference peptide.

B9: ANKRD30A-B2 (peptide)
peptide: LILDTVHSL
notes: also called ENT174_B1
For B9, the “concentration of peptide that induces 20% of HLA-A2 expression” value was found to be 1.13 µM; the “relative affinity, normalized” value is 1.3 ratio to HIV pol reference peptide; the “mean relative fluorescence intensity at 0.1 µM peptide” value was 1.7 % of HIV pol reference peptide; the “mean relative fluorescence intensity at 1 µM peptide” value was 12.4 % of HIV pol reference peptide. In addition, the “mean relative fluorescence intensity at 10 µM peptide” value was 72 % of HIV pol reference peptide and the “mean relative fluorescence intensity at 100 µM peptide” value is 90.8 % of HIV pol reference peptide.

B10: MMP11-B1 (peptide)
peptide: IVWSDVTYV
notes: also called ENT187_B1
On to B10, for which the “concentration of peptide that induces 20% of HLA-A2 expression” value came to 0.08 µM; the “relative affinity, normalized” value was 0.07 ratio to HIV pol reference peptide; the “mean relative fluorescence intensity at 0.1 µM peptide” value is 19.8 % of HIV pol reference peptide; the “mean relative fluorescence intensity at 1 µM peptide” value is 73.3 % of HIV pol reference peptide. The “mean relative fluorescence intensity at 10 µM peptide” value was 97.1 % of HIV pol reference peptide and the “mean relative fluorescence intensity at 100 µM peptide” value is 80.2 % of HIV pol reference peptide.

B11: CDC20-H1 (peptide)
peptide: SLPDRILDA
notes: also called ENT204-H
Regarding B11, the “relative affinity, normalized” value was 6.3 ratio to HIV pol reference peptide.

B12: UBE2C-B1 (peptide)
peptide: FLYDVRTYL
notes: also called ENT168_B1; ENT_168-B1
B12: the “relative affinity, normalized” value was 3.1 ratio to HIV pol reference peptide.

B13: KIF2C-B12 (peptide)
peptide: VMNPELLLL
notes: also called ENT207_B3
For B13, the “concentration of peptide that induces 20% of HLA-A2 expression” value is 0.258 µM; the “relative affinity, normalized” value was 1.1 ratio to HIV pol reference peptide; the “mean relative fluorescence intensity at 0.1 µM peptide” value is 9.8 % of HIV pol reference peptide; the “mean relative fluorescence intensity at 1 µM peptide” value was 41.4 % of HIV pol reference peptide. In addition, the “mean relative fluorescence intensity at 10 µM peptide” value was 84.7 % of HIV pol reference peptide and the “mean relative fluorescence intensity at 100 µM peptide” value is 67.7 % of HIV pol reference peptide.

B14: UBE2C-H1 (peptide)
peptide: ALYDVRTIL
notes: also called ENT168-H
Turning to B14, the “concentration of peptide that induces 20% of HLA-A2 expression” value amounted to 15 µM; the “relative affinity, normalized” value is 8.8 ratio to HIV pol reference peptide; the “mean relative fluorescence intensity at 0.1 µM peptide” value was 3.8 % of HIV pol reference peptide; the “mean relative fluorescence intensity at 1 µM peptide” value is -0.2 % of HIV pol reference peptide. Moreover, the “mean relative fluorescence intensity at 10 µM peptide” value is 6.8 % of HIV pol reference peptide and the “mean relative fluorescence intensity at 100 µM peptide” value was 134 % of HIV pol reference peptide.

B15: KIF2C-B1 (peptide)
peptide: ALNPELLAL
notes: also called ENT207_B1; ENT_207-B1
As for B15, the “relative affinity, normalized” value was 1.6 ratio to HIV pol reference peptide.

B16: UBE2C-H2 (peptide)
peptide: ILLSIQSLL
Consider B16, for which the “concentration of peptide that induces 20% of HLA-A2 expression” value came out at 3.27 µM; the “relative affinity, normalized” value was 3.5 ratio to HIV pol reference peptide; the “mean relative fluorescence intensity at 0.1 µM peptide” value is 2.1 % of HIV pol reference peptide; the “mean relative fluorescence intensity at 1 µM peptide” value is 8.5 % of HIV pol reference peptide. Further, the “mean relative fluorescence intensity at 10 µM peptide” value was 32.7 % of HIV pol reference peptide.

B17: KIF2C-B11 (peptide)
peptide: QMNPELLTL
notes: also called ENT207_B2
As for B17, the “relative affinity, normalized” value was 3.9 ratio to HIV pol reference peptide.

B18: OR51E2-H1 (peptide)
peptide: AQIGIVAVV
In the case of B18, the “concentration of peptide that induces 20% of HLA-A2 expression” value was 5.68 µM; the “relative affinity, normalized” value was 6.2 ratio to HIV pol reference peptide; the “mean relative fluorescence intensity at 0.1 µM peptide” value is 0 % of HIV pol reference peptide; the “mean relative fluorescence intensity at 1 µM peptide” value is 4 % of HIV pol reference peptide. Further, the “mean relative fluorescence intensity at 10 µM peptide” value was 32 % of HIV pol reference peptide.

B19: KIF2C-H1 (peptide)
peptide: AINPELLQL
notes: also called ENT207-H
Consider B19, for which the “concentration of peptide that induces 20% of HLA-A2 expression” value came to 22.6 µM; the “relative affinity, normalized” value was 31.1 ratio to HIV pol reference peptide; the “mean relative fluorescence intensity at 0.1 µM peptide” value is 0 % of HIV pol reference peptide; the “mean relative fluorescence intensity at 1 µM peptide” value is 0.4 % of HIV pol reference peptide. Moreover, the “mean relative fluorescence intensity at 10 µM peptide” value was 9.5 % of HIV pol reference peptide and the “mean relative fluorescence intensity at 100 µM peptide” value is 64.9 % of HIV pol reference peptide.

B20: ANKRD30A-H2 (peptide)
peptide: KILDTVHSC
For B20, the “concentration of peptide that induces 20% of HLA-A2 expression” value was 25.3 µM; the “relative affinity, normalized” value is 29.9 ratio to HIV pol reference peptide; the “mean relative fluorescence intensity at 0.1 µM peptide” value was 1.2 % of HIV pol reference peptide; the “mean relative fluorescence intensity at 1 µM peptide” value is 1.8 % of HIV pol reference peptide. For the same molecule, the “mean relative fluorescence intensity at 10 µM peptide” value was 8.7 % of HIV pol reference peptide and the “mean relative fluorescence intensity at 100 µM peptide” value is 52.3 % of HIV pol reference peptide.

B21: ANKRD30A-B3 (peptide)
peptide: TLDQKLFMV
notes: also called ENT180_B1
With B21, the “concentration of peptide that induces 20% of HLA-A2 expression” value was 0.14 µM; the “relative affinity, normalized” value was 0.2 ratio to HIV pol reference peptide; the “mean relative fluorescence intensity at 0.1 µM peptide” value is 18.8 % of HIV pol reference peptide; the “mean relative fluorescence intensity at 1 µM peptide” value is 67.5 % of HIV pol reference peptide. The “mean relative fluorescence intensity at 10 µM peptide” value is 120 % of HIV pol reference peptide and the “mean relative fluorescence intensity at 100 µM peptide” value is 112 % of HIV pol reference peptide.

B22: ANKRD30A-B1 (peptide)
peptide: ALYSEILTV
notes: also called ENT169_B1; ENT_169-B1
Regarding B22, the “concentration of peptide that induces 20% of HLA-A2 expression” value worked out at 0.05 µM; the “relative affinity, normalized” value is 0.04 ratio to HIV pol reference peptide; the “mean relative fluorescence intensity at 0.1 µM peptide” value was 33.3 % of HIV pol reference peptide; the “mean relative fluorescence intensity at 1 µM peptide” value is 77.2 % of HIV pol reference peptide. Further, the “mean relative fluorescence intensity at 10 µM peptide” value was 93.7 % of HIV pol reference peptide and the “mean relative fluorescence intensity at 100 µM peptide” value is 88.2 % of HIV pol reference peptide.

B23: UBE2C-B11 (peptide)
peptide: YLYDVRTAL
notes: also called ENT168_B2
Turning to B23, the “concentration of peptide that induces 20% of HLA-A2 expression” value was found to be 0.87 µM; the “relative affinity, normalized” value is 0.7 ratio to HIV pol reference peptide; the “mean relative fluorescence intensity at 0.1 µM peptide” value was 6.6 % of HIV pol reference peptide; the “mean relative fluorescence intensity at 1 µM peptide” value is 22.2 % of HIV pol reference peptide. For the same molecule, the “mean relative fluorescence intensity at 10 µM peptide” value was 68.4 % of HIV pol reference peptide and the “mean relative fluorescence intensity at 100 µM peptide” value is 87.5 % of HIV pol reference peptide.

B24: KIF2C-B13 (peptide)
peptide: VLNPELLML
notes: also called ENT207_B4
In the case of B24, the “concentration of peptide that induces 20% of HLA-A2 expression” value is 0.189 µM; the “relative affinity, normalized” value was 0.8 ratio to HIV pol reference peptide; the “mean relative fluorescence intensity at 0.1 µM peptide” value was 10.5 % of HIV pol reference peptide; the “mean relative fluorescence intensity at 1 µM peptide” value is 42.1 % of HIV pol reference peptide. In addition, the “mean relative fluorescence intensity at 10 µM peptide” value is 45.3 % of HIV pol reference peptide and the “mean relative fluorescence intensity at 100 µM peptide” value was 50.3 % of HIV pol reference peptide.

B25: UBE2C-H11 (peptide)
peptide: ALYDVRTILL
notes: also called UBEC2-H11; ENT168-HL
Regarding B25, the “concentration of peptide that induces 20% of HLA-A2 expression” value was determined as 14.9 µM; the “relative affinity, normalized” value was 8.7 ratio to HIV pol reference peptide; the “mean relative fluorescence intensity at 0.1 µM peptide” value was 4.2 % of HIV pol reference peptide; the “mean relative fluorescence intensity at 1 µM peptide” value is -2.3 % of HIV pol reference peptide. The “mean relative fluorescence intensity at 10 µM peptide” value was 8.9 % of HIV pol reference peptide and the “mean relative fluorescence intensity at 100 µM peptide” value is 135 % of HIV pol reference peptide.

B26: ANKRD30A-H1 (peptide)
peptide: AVYSEILSV
notes: also called ENT169-H
For B26, the “concentration of peptide that induces 20% of HLA-A2 expression” value is 0.65 µM.
